Article PMC10847417, “CIP2A induces PKM2 tetramer formation and oxidative phosphorylation in non-small cell lung cancer” (Cell Discovery, 2024)

Target: the molecule itself
Assay: SEC; purified recombinant WT, S287A and S287D PKM2 expressed in bacteria; size exclusion chromatography with molecular mass standards

Protein	stoichiometry N
purified recombinant S287D PKM2 expressed in bacteria (enzyme, PKM2 S287D (phospho-mimetic), recombinant; construct, tag and limits not described; source: expressed in bacteria, purified recombinant) not shown	4
purified recombinant S287A PKM2 expressed in bacteria (enzyme, PKM2 S287A, recombinant; construct, tag and limits not described; source: expressed in bacteria, purified recombinant) not shown	2
